Reference: patent US20230053493A1, “ONE STEP METHODS, KITS, AND SYSTEMS FOR THE MEASUREMENT OF CONCENTRATIONS OF UNBOUND BILIRUBIN IN BIOLOGICAL FLUIDS” (priority 2019, published 2023)

B1: 76C-C2XH11-700DXM: rIFABP mutein MGI-KR14-14R 18L 27A 38V 60R 73F 76C 106L 115R 117D 131D-C2XH11 labeled with LICOR 700DX-maleimide (protein)
chain: MGIAFDGTWRVDRNENRERFLERMGINVVARRLGAHDNLRVTITQEGNRFTVRESSNFRNIDRVFELGVDFAYSLFDGCELTGTWTMEGNRLVGRFRRVDNGRELIAVLEISGNELIRTDTYEGVEARRIFRRDRGAASHHHHHHSHRATPNTSPHHHHHHH
modifications: LICOR 700DX-maleimide label; mutated bf sensitive probe
notes: rIFABP mutein MGI-KR14-14R 18L 27A 38V 60R 73F 76C 106L 115R 117D 131D-C2XH11 labeled with LICOR 700DX-maleimide
B2: 25C-C2XH11-700DXM: rIFABP mutein MGI-KR14-14R 18L 25C 27A 38V 60R 73F 106L 115R 117D 131D-C2XH11 labeled with LICOR 700DX-maleimide (protein)
chain: MGIAFDGTWRVDRNENRERFLERMGINCVARRLGAHDNLRVTITQEGNRFTVRESSNFRNIDRVFELGVDFAYSLFDGTELTGTWTMEGNRLVGRFRRVDNGRELIAVLEISGNELIRTDTYEGVEARRIFRRDRGAASHHHHHHSHRATPNTSPHHHHHHH
modifications: C2XH11 tag; LICOR 700DX-maleimide label; mutated bf sensitive probe
notes: rIFABP mutein MGI-KR14-14R 18L 25C 27A 38V 60R 73F 106L 115R 117D 131D-C2XH11 labeled with LICOR 700DX-maleimide
B3: 30C-C2XH11-700DXM: rIFABP mutein MGI-KR14-14R 18L 27A 30C 38V 60R 73F 106L 115R 117D 131D-C2XH11 labeled with LICOR 700DX-maleimide (protein)
chain: MGIAFDGTWRVDRNENRERFLERMGINVVARRCGAHDNLRVTITQEGNRFTVRESSNFRNIDRVFELGVDFAYSLFDGTELTGTWTMEGNRLVGRFRRVDNGRELIAVLEISGNELIRTDTYEGVEARRIFRRDRGAASHHHHHHSHRATPNTSPHHHHHHH
modifications: C2XH11 tag; LICOR 700DX-maleimide label; mutated bf sensitive probe
notes: rIFABP mutein MGI-KR14-14R 18L 27A 30C 38V 60R 73F 106L 115R 117D 131D-C2XH11 labeled with LICOR 700DX-maleimide
B4: 33C-C2XH11-700DXM: rIFABP mutein MGI-KR14-14R 18L 27A 33C 38V 60R 73F 106L 115R 117D 131D-C2XH11 labeled with LICOR 700DX-maleimide (protein)
chain: MGIAFDGTWRVDRNENRERFLERMGINVVARRLGACDNLRVTITQEGNRFTVRESSNFRNIDRVFELGVDFAYSLFDGTELTGTWTMEGNRLVGRFRRVDNGRELIAVLEISGNELIRTDTYEGVEARRIFRRDRGAASHHHHHHSHRATPNTSPHHHHHHH
modifications: C2XH11 tag; LICOR 700DX-maleimide label; mutated bf sensitive probe
notes: rIFABP mutein MGI-KR14-14R 18L 27A 33C 38V 60R 73F 106L 115R 117D 131D-C2XH11 labeled with LICOR 700DX-maleimide
B5: 54C-C2XH11-700DXM: rIFABP mutein MGI-KR14-14R 18L 27A 38V 54C 60R 73F 106L 115R 117D 131D-C2XH11 labeled with LICOR 700DX-maleimide (protein)
chain: MGIAFDGTWRVDRNENRERFLERMGINVVARRLGAHDNLRVTITQEGNRFTVRESSCFRNIDRVFELGVDFAYSLFDGTELTGTWTMEGNRLVGRFRRVDNGRELIAVLEISGNELIRTDTYEGVEARRIFRRDRGAASHHHHHHSHRATPNTSPHHHHHHH
modifications: C2XH11 tag; LICOR 700DX-maleimide label; mutated bf sensitive probe
notes: rIFABP mutein MGI-KR14-14R 18L 27A 38V 54C 60R 73F 106L 115R 117D 131D-C2XH11 labeled with LICOR 700DX-maleimide
B6: 24C- C2XH11-700DXM: rIFABP mutein MGI-KR14-14R 18L 24C 27A 38V 60R 73F 106L 115R 117D 131D-C2XH11 labeled with LICOR 700DX-maleimide (protein)
chain: MGIAFDGTWRVDRNENRERFLERMGICVVARRLGAHDNLRVTITQEGNRFTVRESSNFRNIDRVFELGVDFAYSLFDGTELTGTWTMEGNRLVGRFRRVDNGRELIAVLEISGNELIRTDTYEGVEARRIFRRDRGAASHHHHHHSHRATPNTSPHHHHHHH
modifications: C2XH11 tag; LICOR 700DX-maleimide label; mutated bf sensitive probe
notes: rIFABP mutein MGI-KR14-14R 18L 24C 27A 38V 60R 73F 106L 115R 117D 131D-C2XH11 labeled with LICOR 700DX-maleimide
B7: 29C-C2XH11-700DXM: rIFABP mutein MGI-KR14-14R 18L 27A 29C 38V 60R 73F 106L 115R 117D 131D-C2XH11 labeled with LICOR 700DX-maleimide (protein)
chain: MGIAFDGTWRVDRNENRERFLERMGINVVARCLGAHDNLRVTITQEGNRFTVRESSNFRNIDRVFELGVDFAYSLFDGTELTGTWTMEGNRLVGRFRRVDNGRELIAVLEISGNELIRTDTYEGVEARRIFRRDRGAASHHHHHHSHRATPNTSPHHHHHHH
modifications: C2XH11 tag; LICOR 700DX-maleimide label; mutated bf sensitive probe
notes: rIFABP mutein MGI-KR14-14R 18L 27A 29C 38V 60R 73F 106L 115R 117D 131D-C2XH11 labeled with LICOR 700DX-maleimide
B8: 74C-C2XH11-700DXM: rIFABP mutein MGI-KR14-14R 18L 27A 38V 60R 73F 74C 106L 115R 117D 131D-C2XH11 labeled with LICOR 700DX-maleimide (protein)
chain: MGIAFDGTWRVDRNENRERFLERMGINVVARRLGAHDNLRVTITQEGNRFTVRESSNFRNIDRVFELGVDFAYSLFCGTELTGTWTMEGNRLVGRFRRVDNGRELIAVLEISGNELIRTDTYEGVEARRIFRRDRGAASHHHHHHSHRATPNTSPHHHHHHH
modifications: C2XH11 tag; LICOR 700DX-maleimide label; mutated bf sensitive probe
notes: rIFABP mutein MGI-KR14-14R 18L 27A 38V 60R 73F 74C 106L 115R 117D 131D-C2XH11 labeled with LICOR 700DX-maleimide
B9: 97C-C2XH11-700DXM: rIFABP mutein MGI-KR14-14R 18L 27A 38V 60R 73F 97C 106L 115R 117D 131D-C2XH11 labeled with LICOR 700DX-maleimide (protein)
chain: MGIAFDGTWRVDRNENRERFLERMGINVVARRLGAHDNLRVTITQEGNRFTVRESSNFRNIDRVFELGVDFAYSLFDGTELTGTWTMEGNRLVGRFRRVCNGRELIAVLEISGNELIRTDTYEGVEARRIFRRDRGAASHHHHHHSHRATPNTSPHHHHHHH
modifications: LICOR 700DX-maleimide label; mutated bf sensitive probe
notes: rIFABP mutein MGI-KR14-14R 18L 27A 38V 60R 73F 97C 106L 115R 117D 131D-C2XH11 labeled with LICOR 700DX-maleimide
B10: 98C-C2XH11-700DXM: rIFABP mutein MGI-KR14-14R 18L 27A 38V 60R 73F 98C 106L 115R 117D 131D-C2XH11 labeled with LICOR 700DX-maleimide (protein)
chain: MGIAFDGTWRVDRNENRERFLERMGINVVARRLGAHDNLRVTITQEGNRFTVRESSNFRNIDRVFELGVDFAYSLFDGTELTGTWTMEGNRLVGRFRRVDCGRELIAVLEISGNELIRTDTYEGVEARRIFRRDRGAASHHHHHHSHRATPNTSPHHHHHHH
modifications: LICOR 700DX-maleimide label; mutated bf sensitive probe
notes: rIFABP mutein MGI-KR14-14R 18L 27A 38V 60R 73F 98C 106L 115R 117D 131D-C2XH11 labeled with LICOR 700DX-maleimide
B11: 26C-C2XH11-700DXM: rIFABP mutein MGI-KR14-14R 18L 26C 27A 38V 60R 73F 106L 115R 117D 131D-C2XH11 labeled with LICOR 700DX-maleimide (protein)
chain: MGIAFDGTWRVDRNENRERFLERMGINVCARRLGAHDNLRVTITQEGNRFTVRESSNFRNIDRVFELGVDFAYSLFDGTELTGTWTMEGNRLVGRFRRVDNGRELIAVLEISGNELIRTDTYEGVEARRIFRRDRGAASHHHHHHSHRATPNTSPHHHHHHH
modifications: C2XH11 tag; LICOR 700DX-maleimide label; mutated bf sensitive probe
notes: rIFABP mutein MGI-KR14-14R 18L 26C 27A 38V 60R 73F 106L 115R 117D 131D-C2XH11 labeled with LICOR 700DX-maleimide

Assay: Calibration of free NIR probe/sensor by bilirubin titration (cuvette fluorometry, fit with equation 1)
Assay type: binding
Conditions: for Qs (Rm/Ro): degree to which the probe is quenched by bilirubin binding, effect of fluorophore position
Excerpt: Embodiments provided herein are directed to methods of calibrating the bilirubin probes by mixing in an aqueous media the sensor with samples of bilirubin of increasing total bilirubin concentrations (BT), measuring the ratio of fluorescence intensities R of the sensor at each concentration, and determining the calibration parameters (Kd, Rm, and Ro) from the measured fluorescence by fitting with the equation (1), wherein R is the measured fluorescence ratio (Iλ1/Iλ2), where hi is the fluorescence intensity from the first fluorophore at wavelength λ1 and Iλ2 is the fluorescence intensity from the second fluorophore at wavelength λ2, both λ1 and λ2 have background subtracted, and Ro is the ratio in the absence of bilirubin. BT is the total bilirubin concentration and PT is the concentration of the sensor, r is the Iλ2/Iλ1 ratio of the bilirubin sensitive probe's fluorescence in the absence of the second fluorophore, Kd is the equilibrium dissociation constant of the sensor and Rm is the ratio R extrapolated to infinite BT. Equation (1) is used in some embodiments rather than equation (5) of U.S. Pat. No. 9,529,003 when Rm is >0.
Also described are methods for calibrating and using a bilirubin sensor described herein so that Bf concentrations can be determined in approximately 5 μl of undiluted blood samples in a single step. These small volume blood samples are applied to the disposable plastic microfluidic cartridges containing the dried bilirubin ratio sensor. The bilirubin sensor containing cartridges are preferably used for a single measurement and the calibration parameters (Kd, Rm, Ro) must be determined within a “lot” of identically manufactured cartridges. The calibration is performed by titrating a sufficient number of cartridges with aqueous samples of increasing well-defined Bf levels. Because plastics bind unbound bilirubin and because surface to volume ratio in the microfluidics channel is large, the calibration Bf samples must be highly buffered by complexes with albumin. The Bf concentrations of each complex are determined by measuring each by cuvette fluorometry using a calibrated sensor free in aqueous solutions. The free sensor is calibrated by titration with aqueous solutions of bilirubin where the concentrations of these unbound bilirubin solutions are determined by absorbance. The free probe's response (R values versus Bf concentrations) are used to determine the free sensor's calibration (Kd, Rm, Ro) (equation 1). The calibrated free sensor mixed with samples of each of the BR:HSA complexes is used to determine the Bf concentrations of each complexes by cuvette fluorometry using equation 2. These calibrated complexes are used to determine the binding parameters of the disposable cartridges including the equilibrium dissociation constant (Kd), the minimum fluorescence ratio (Rm) and the initial ratio (Ro) under defined conditions, of temperature, pH, and solution composition, suitable for blood samples. Binding isotherms are performed in aqueous buffer by measuring the change in fluorescence of the bilirubin sensor in response to increasing bilirubin concentrations (“titration data”). The set of fluorescence responses at each bilirubin concentration are fitted with an appropriate equation (“calibration equation (3)”) that correctly describes the fluorescence response as a function of the Bf concentration, the, specific spectroscopic characteristics, and the Kd.
All responder probes labeled with LICOR 700DX-maleimide and non-responder probes labeled with LICOR 800CW-maleimide probes in Tables 1 and 2, respectively have qualitatively similar dependencies on Bf. The probes differ mostly in protein expression, binding parameters (Kd, Ro and Rm) and stability. […] Although the non-responders are not characterized by bilirubin binding parameters, the emission spectrum of the 800CW-maleimide is sensitive to specific substitutions that can alter the LICOR 700DX-maleimide intensities. […]

[1] = effect of fluorophore (cysteine) position, responder probe labeled with 700DX-maleimide
[2] = free Bf sensor, fit of equation 1 (FIG. 2)

Molecule	Qs (Rm/Ro)	Kd [1] [nM]	Kd (free Bf sensor with non-responder Mut:SEQ ID NO:1 B-73C in aqueous buffer, excitation 660 nm, 700/805 ratio, fit of equation 1 (FIG. 2)) [nM]	Qs which is Rm/Ro [2]	Rm [2]	Ro [2]
B1	0.04	14	12.4 ± 0.4	0.139±0.007	0.42	3.02
B2	0.27	12				
B3	0.11	41				
B4	0.17	25				
B5	0.48	22				
B6	0.14	44				
B7	0.52	29				
B8	0.15	16				
B9	0.29	25				
B10	0.03	13				
B11	0.36	21				
